Test results from US20230143294A1 (SYNBIO TECHNOLOGIES, published 2023).
Like-named read-outs stand apart in the source and are kept apart here.

Key:
[1] = biological target: T1, human PD-L1 antigen (Beijing Sino Biological Inc, Catalog No. #10084-H08H-100) (human, UniProt Q9NZQ7 19-239); test: BLI (ForteBIO Octet), antibody captured on sensor, human PD-L1 in solution
T1 construct: Bought antigen; also called the antigen

[2] = biological target: T1, human PD-L1 antigen (Beijing Sino …); test: as above; remark: listed apart in the source

T1 sequence (Q9NZQ7 19-239 limits assumed): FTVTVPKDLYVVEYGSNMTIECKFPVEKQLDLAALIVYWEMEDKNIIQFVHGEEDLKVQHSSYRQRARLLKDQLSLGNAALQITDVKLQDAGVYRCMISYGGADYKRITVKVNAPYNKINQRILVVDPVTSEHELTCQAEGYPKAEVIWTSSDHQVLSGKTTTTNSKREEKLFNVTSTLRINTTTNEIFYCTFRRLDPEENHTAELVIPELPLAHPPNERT

| Binder | Kd [1] | koff [1] | kon [1] | Kd [2] | koff [2] | kon [2] |
| --- | --- | --- | --- | --- | --- | --- |
| Antibody II-HX-15 (antibody, human IgG4 S228P, kappa, V domains shown, also called antibody II sample; candidate antibody II sample) VH: VQLVQSGAEVKKPGASVKVSCKASGYTFTSYVMHWVRQAPGQGLEWMGYINPYNDGTKYNEKFKGRVTITSDKSASTAYMELSSLRSEDTAVYYCAWSGAIFEYWGQGTLVTVSS VL: TQSPSFLSASVGDRVTITCSASSSVSYMHWFQQKPGKSPKLWIYSTSNLASGVPARFSGSGSGTSYSLTISSLQPEDFATYYCQQRSSYPYTFGQGTKLEIKR | 0.149 nM | 5.6e-07 s⁻¹ | 3760 M⁻¹ s⁻¹ |  |  |  |
| Antibody II-HX-10 (antibody, human IgG4 S228P, kappa, V domains shown) VH: VQLVQSGAEVKKPGASVKVSCKASGYSTSSFVMHWVRQAPGQGLEWMGYINYYNDATKYNEKFKGRVTITSDKSASTAYMELSSLRSEDTAVYYCAWSGAIFEYWGQGTLVTVSS VL: TQSPSFLSASVGDRVTITCSASSSVSYMHWFQQKPGKSPKLWIYSYSNLASGVPARFSGSGSGTSYSLTISSLQPEDFATYYCQNRTSFHYTFGQGTKLEIKR | 3.67 nM | 9.2e-06 s⁻¹ | 2510 M⁻¹ s⁻¹ |  |  |  |
| Antibody I-HX-2 (antibody, human IgG4 S228P, kappa, V domains shown, also called antibody I sample; candidate antibody I sample) VH: VQLVQSGAEVKKPGASVKVSCKASGYSFTSYWMHWVRQAPGQGLEWMGAIYPGNSDTSYNQKFKGRVTITAVTSASTAYMELSSLRSEDTAVYYCTRWGDGYYHAMDHWGQGTLVTVSS VL: DIQMTQSPSSLSASVGDRVTITCRASQDIGNTLNWLQQKPGKAIKRLIYATSSLDSGVPKRFSGSRSGSDYSLTISSLQPEDFATYYCLQYASSPFTFGQGTKLEIKR |  |  |  | 0.0291 nM | 2.7e-07 s⁻¹ | 9280 M⁻¹ s⁻¹ |
| Antibody I-HX-8 (antibody, human IgG4 S228P, kappa, V domains shown) VH: VQLVQSGAEVKKPGASVKVSCKASGYSFTTYWMHWVRQAPGQGLEWMGAIYPVHSETSYNQKFKGRVTITAVTSASTAYMELSSLRSEDTAVYYCTHWIEAFFHLMQHWGQGTLVTVSS VL: DIQMTQSPSSLSASVGDRVTITCRASQNIGQTLNWLQQKPGKAIKRLIYSTSSLDSGVPKRFSGSRSGSDYSLTISSLQPEDFATYYCLQYASSPFTFGQGTKLEIKR |  |  |  | 0.259 nM | 1.81e-06 s⁻¹ | 6990 M⁻¹ s⁻¹ |
| Antibody I-HX-5 (antibody, human IgG4 S228P, kappa, V domains shown) VH: VQLVQSGAEVKKPGASVKVSCKASGYTFTSYWMHWVRQAPGQGLEWMGAIYWAHSETSYNQKFKGRVTITAVTSASTAYMELSSLRSEDTAVYYCTHWLEVYFHGMDHWGQGTLVTVSS VL: DIQMTQSPSSLSASVGDRVTITCRASQNGINTLNWLQQKPGKAIKRLIYVTSSLDSGVPKRFSGSRSGSDYSLTISSLQPEDFATYYCLYYASYFFTFGQGTKLEIKR |  |  |  | 0.459 nM | 3.27e-06 s⁻¹ | 7120 M⁻¹ s⁻¹ |
| Antibody I-HX-3 (antibody, human IgG4 S228P, kappa, V domains shown) VH: VQLVQSGAEVKKPGASVKVSCKASGYTYYFYWMHWVRQAPGQGLEWMGAIYHGNSETSYNQKFKGRVTITAVTSASTAYMELSSLRSEDTAVYYCTHWADAYFHGMNHWGQGTLVTVSS VL: DIQMTQSPSSLSASVGDRVTITCRASQNIANTLNWLQQKPGKAIKRLIYVSSSLDSGVPKRFSGSRSGSDYSLTISSLQPEDFATYYCLYYASYFFTFGQGTKLEIKR |  |  |  | 0.271 nM | 1.92e-06 s⁻¹ | 7080 M⁻¹ s⁻¹ |
| Antibody I-HX-4 (antibody, human IgG4 S228P, kappa, V domains shown) VH: VQLVQSGAEVKKPGASVKVSCKASGYTYNFYWMHWVRQAPGQGLEWMGAIYHVQSDTSYNQKFKGRVTITAVTSASTAYMELSSLRSEDTAVYYCTHWLEVYFHGMDHWGQGTLVTVSS VL: DIQMTQSPSSLSASVGDRVTITCRASQEIGQTLNWLQQKPGKAIKRLIYVTSSLDSGVPKRFSGSRSGSDYSLTISSLQPEDFATYYCLYFASSPFTFGQGTKLEIKR |  |  |  | 0.11 nM | 8.95e-07 s⁻¹ | 8100 M⁻¹ s⁻¹ |
| Antibody I-HX-7 (antibody, human IgG4 S228P, kappa, V domains shown) VH: VQLVQSGAEVKKPGASVKVSCKASGYSFTTYWMHWVRQAPGQGLEWMGAIYWAHSETSYNQKFKGRVTITAVTSASTAYMELSSLRSEDTAVYYCTRWGDGYYHAMDHWGQGTLVTVSS VL: DIQMTQSPSSLSASVGDRVTITCRASQEIGQTLNWLQQKPGKAIKRLIYATSSLDSGVPKRFSGSRSGSDYSLTISSLQPEDFATYYCLYYASTPFTFGQGTKLEIKR |  |  |  | 0.047 nM | 4.27e-07 s⁻¹ | 9090 M⁻¹ s⁻¹ |
| Antibody I-HX-6 (antibody, human IgG4 S228P, kappa, V domains shown) VH: VQLVQSGAEVKKPGASVKVSCKASGYSFSSYWMHWVRQAPGQGLEWMGAIYPGQSETSYNQKFKGRVTITAVTSASTAYMELSSLRSEDTAVYYCTHWIDGYFHVMDHWGQGTLVTVSS VL: DIQMTQSPSSLSASVGDRVTITCRASQEIGQTLNWLQQKPGKAIKRLIYGTSSLDSGVPKRFSGSRSGSDYSLTISSLQPEDFATYYCLNYISSPFTFGQGTKLEIKR |  |  |  | 0.0481 nM | 4.29e-07 s⁻¹ | 8930 M⁻¹ s⁻¹ |
| Antibody I-HX-1 (antibody, human IgG4 S228P, kappa, V domains shown, expressed in HEK 293 or CHO cells) VH: VQLVQSGAEVKKPGASVKVSCKASGYSYYFYWMHWVRQAPGQGLEWMGAIYHINSDTSYNQKFKGRVTITAVTSASTAYMELSSLRSEDTAVYYCTRWGEGYYHAMNHWGQGTLVTVSS VL: DIQMTQSPSSLSASVGDRVTITCRASQDLGNTLNWLQQKPGKAIKRLIYASSSLDSGVPKRFSGSRSGSDYSLTISSLQPEDFATYYCLYYASTPFTFGQGTKLEIKR |  |  |  | 0.046 nM | 4.1e-07 s⁻¹ | 8920 M⁻¹ s⁻¹ |

The remaining lines, values ahead:

| Kd [1] | koff [1] | kon [1] | Kd [2] | koff [2] | kon [2] | Binder |
| --- | --- | --- | --- | --- | --- | --- |
| 3.19 nM | 9.55e-06 s⁻¹ | 2990 M⁻¹ s⁻¹ |  |  |  | Antibody II-HX-14 (antibody, human IgG4 S228P, kappa, V domains shown) VH: VQLVQSGAEVKKPGASVKVSCKASGYFFSSFVMHWVRQAPGQGLEWMGYINYYNDATKYNEKFKGRVTITSDKSASTAYMELSSLRSEDTAVYYCARSAALSEYWGQGTLVTVSS VL: TQSPSFLSASVGDRVTITCSASSTITYMHWFQQKPGKSPKLWIYYTSNLASGVPARFSGSGSGTSYSLTISSLQPEDFATYYCQNRTSFHYTFGQGTKLEIKR |
| 1.82 nM | 4.92e-06 s⁻¹ | 2710 M⁻¹ s⁻¹ |  |  |  | Antibody II-HX-17 (antibody, human IgG4 S228P, kappa, V domains shown) VH: VQLVQSGAEVKKPGASVKVSCKASGYFFSSFVMHWVRQAPGQGLEWMGYINHFQDATKYNEKFKGRVTITSDKSASTAYMELSSLRSEDTAVYYCARSVGITDYWGQGTLVTVSS VL: TQSPSFLSASVGDRVTITCSASSTVYYMHWFQQKPGKSPKLWIYSYSNLASGVPARFSGSGSGTSYSLTISSLQPEDFATYYCQQRSSYHYTFGQGTKLEIKR |
| 2.8 nM | 7.71e-06 s⁻¹ | 2750 M⁻¹ s⁻¹ |  |  |  | Antibody II-HX-11 (antibody, human IgG4 S228P, kappa, V domains shown) VH: VQLVQSGAEVKKPGASVKVSCKASGYYTSSPVMHWVRQAPGQGLEWMGYINYFYDGTKYNEKFKGRVTITSDKSASTAYMELSSLRSEDTAVYYCAKSAIAFEYWGQGTLVTVSS VL: TQSPSFLSASVGDRVTITCSASSTVYYMHWFQQKPGKSPKLWIYSTSNLASGVPARFSGSGSGTSYSLTISSLQPEDFATYYCQYRSSYWYTFGQGTKLEIKR |
| 0.707 nM | 2.13e-06 s⁻¹ | 3010 M⁻¹ s⁻¹ |  |  |  | Antibody II-HX-13 (antibody, human IgG4 S228P, kappa, V domains shown) VH: VQLVQSGAEVKKPGASVKVSCKASGYSFTSYVMHWVRQAPGQGLEWMGYINPYNDGTKYNEKFKGRVTITSDKSASTAYMELSSLRSEDTAVYYCARSIGITDYWGQGTLVTVSS VL: TQSPSFLSASVGDRVTITCSASSSISYMHWFQQKPGKSPKLWIYSTSNLASGVPARFSGSGSGTSYSLTISSLQPEDFATYYCQQRSSFPYTFGQGTKLEIKR |
| 1.23 nM | 3.75e-06 s⁻¹ | 3040 M⁻¹ s⁻¹ |  |  |  | Antibody II-HX-19 (antibody, human IgG4 S228P, kappa, V domains shown) VH: VQLVQSGAEVKKPGASVKVSCKASGYYTTSYVMHWVRQAPGQGLEWMGYINHFQDATKYNEKFKGRVTITSDKSASTAYMELSSLRSEDTAVYYCAWSGAIFEYWGQGTLVTVSS VL: TQSPSFLSASVGDRVTITCSASSSGYYMHWFQQKPGKSPKLWIYTTSNLASGVPARFSGSGSGTSYSLTISSLQPEDFATYYCQQRSSYPYTFGQGTKLEIKR |
| 0.624 nM | 1.92e-06 s⁻¹ | 3080 M⁻¹ s⁻¹ |  |  |  | Antibody II-HX-18 (antibody, human IgG4 S228P, kappa, V domains shown) VH: VQLVQSGAEVKKPGASVKVSCKASGYYTSSPVMHWVRQAPGQGLEWMGYINPYNDGTKYNEKFKGRVTITSDKSASTAYMELSSLRSEDTAVYYCAKSGGISDYWGQGTLVTVSS VL: TQSPSFLSASVGDRVTITCSASSSASYMHWFQQKPGKSPKLWIYSYSNLASGVPARFSGSGSGTSYSLTISSLQPEDFATYYCQYRTSYPYTFGQGTKLEIKR |
| 3.71 nM | 9.19e-06 s⁻¹ | 2500 M⁻¹ s⁻¹ |  |  |  | Antibody II-HX-16 (antibody, human IgG4 S228P, kappa, V domains shown) VH: VQLVQSGAEVKKPGASVKVSCKASGYFYTSYVMHWVRQAPGQGLEWMGYINPFQDITKYNEKFKGRVTITSDKSASTAYMELSSLRSEDTAVYYCAWSAALSEYWGQGTLVTVSS VL: TQSPSFLSASVGDRVTITCSASSSVSYMHWFQQKPGKSPKLWIYSTSNLASGVPARFSGSGSGTSYSLTISSLQPEDFATYYCQNRYSYPYTFGQGTKLEIKR |
